Km and kcat data for one protein are collected here from ChEMBL document CHEMBL1156055, “Synthetic substrate for application in both high and low throughput assays for botulinum neurotoxin B protease inhibitors” (Bioorg Med Chem Lett, 2009).

Substrate in this data set: COc1ccc2c(CC(=O)NCCCC[C@H](NC(=O)CNC(=O)[C@H](C)NC(=O)[C@H](CCC(N)=O)NC(=O)[C@H](CC(C)C)NC(=O)[C@H](C)NC(=O)[C@H](CC(=O)O)NC(=O)[C@H](C)NC(=O)[C@H](CCCNC(=N)N)NC(=O)[C@H](CC(=O)O)NC(=O)[C@H](CC(=O)O)NC(=O)[C@H](CC(C)C)NC(=O)[C@H](CCC(=O)O)NC(=O)[C@H](CO)NC(=O)[C@H](CC(C)C)NC(=O)[C@H](CCCCN)NC(=O)[C@H](CCC(N)=O)NC(=O)[C@H](CC(=O)O)NC(=O)[C@H](CCCNC(=N)N)NC(=O)[C@H](CCC(=O)O)NC(C)=O)C(=O)N[C@@H](CO)C(=O)N[C@@H](CCC(N)=O)C(=O)N[C@@H](CNc3ccc([N+](=O)[O-])cc3[N+](=O)[O-])C(=O)N[C@@H](CCC(=O)O)C(=O)N[C@@H](CO)C(=O)N[C@@H](CO)C(=O)N[C@@H](C)C(=O)N[C@@H](C)C(=O)N[C@@H](CCCCN)C(=O)N[C@@H](CC(C)C)C(=O)N[C@@H](CCCCN)C(=O)N[C@@H](CCCNC(=N)N)C(=O)N[C@@H](CCCCN)C(=O)N[C@@H](Cc3ccc(O)cc3)C(=O)N[C@@H](Cc3c[nH]c4ccccc34)C(=O)N[C@@H](Cc3c[nH]c4ccccc34)C(=O)N[C@@H](CCCCN)C(=O)N[C@@H](CC(N)=O)C(=O)N[C@@H](CC(C)C)C(=O)N[C@@H](CCCCN)C(N)=O)cc(=O)oc2c1
Kind of data set: Activity at Clostridium botulinum BoNT/B protease.

B1: Botulinum neurotoxin type B (Clostridium botulinum), P10844 (protein)
chain: MPVTINNFNYNDPIDNNNIIMMEPPFARGTGRYYKAFKITDRIWIIPERYTFGYKPEDFNKSSGIFNRDVCEYYDPDYLNTNDKKNIFLQTMIKLFNRIKSKPLGEKLLEMIINGIPYLGDRRVPLEEFNTNIASVTVNKLISNPGEVERKKGIFANLIIFGPGPVLNENETIDIGIQNHFASREGFGGIMQMKFCPEYVSVFNNVQENKGASIFNRRGYFSDPALILMHELIHVLHGLYGIKVDDLPIVPNEKKFFMQSTDAIQAEELYTFGGQDPSIITPSTDKSIYDKVLQNFRGIVDRLNKVLVCISDPNININIYKNKFKDKYKFVEDSEGKYSIDVESFDKLYKSLMFGFTETNIAENYKIKTRASYFSDSLPPVKIKNLLDNEIYTIEEGFNISDKDMEKEYRGQNKAINKQAYEEISKEHLAVYKIQMCKSVKAPGICIDVDNEDLFFIADKNSFSDDLSKNERIEYNTQSNYIENDFPINELILDTDLISKIELPSENTESLTDFNVDVPVYEKQPAIKKIFTDENTIFQYLYSQTFPLDIRDISLTSSFDDALLFSNKVYSFFSMDYIKTANKVVEAGLFAGWVKQIVNDFVIEANKSNTMDKIADISLIVPYIGLALNVGNETAKGNFENAFEIAGASILLEFIPELLIPVVGAFLLESYIDNKNKIIKTIDNALTKRNEKWSDMYGLIVAQWLSTVNTQFYTIKEGMYKALNYQAQALEEIIKYRYNIYSEKEKSNINIDFNDINSKLNEGINQAIDNINNFINGCSVSYLMKKMIPLAVEKLLDFDNTLKKNLLNYIDENKLYLIGSAEYEKSKVNKYLKTIMPFDLSIYTNDTILIEMFNKYNSEILNNIILNLRYKDNNLIDLSGYGAKVEVYDGVELNDKNQFKLTSSANSKIRVTQNQNIIFNSVFLDFSVSFWIRIPKYKNDGIQNYIHNEYTIINCMKNNSGWKISIRGNRIIWTLIDINGKTKSVFFEYNIREDISEYINRWFFVTITNNLNNAKIYINGKLESNTDIKDIREVIANGEIIFKLDGDIDRTQFIWMKYFSIFNTELSQSNIEERYKIQSYSEYLKDFWGNPLMYNKEYYMFNAGNKNSYIKLKKDSPVGEILTRSKYNQNSKYINYRDLYIGEKFIIRRKSNSQSINDDIVRKEDYIYLDFFNLNQEWRVYTYKYFKKEEEKLFLAPISDSDEFYNTIQIKEYDEQPTYSCQLLFKKDEESTDEIGLIGIHRFYESGIVFEEYKDYFCISKWYLKEVKRKPYNLKLGCNWQFIPKDEGWTE
For B1, the Michaelis-Menten constant (Km) – broadly, the concentration of substrate that gives half-maximal velocity – worked out at 70.9 µM; the kcat – broadly, the number of substrate molecules converted per active site and unit of time at saturation – amounted to 3.81 s⁻¹.
